The values below are quoted from earlier work in publication PMC2363349.

This data set concerns the target TGF-βRII (Homo sapiens) (UniProt P37173).

TGF-βRII (Homo sapiens), sequence (P37173 23-166): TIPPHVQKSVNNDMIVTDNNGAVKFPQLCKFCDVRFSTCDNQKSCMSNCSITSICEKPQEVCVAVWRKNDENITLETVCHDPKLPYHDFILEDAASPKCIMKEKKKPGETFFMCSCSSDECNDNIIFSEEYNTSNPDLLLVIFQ
TGF-β1, sequence (P01137 279-390): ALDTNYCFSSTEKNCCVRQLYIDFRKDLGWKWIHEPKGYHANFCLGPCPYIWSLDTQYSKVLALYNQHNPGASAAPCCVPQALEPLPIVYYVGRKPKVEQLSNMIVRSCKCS

Usually Kd stands for the free concentration of one partner at which half of the binding sites on the other are occupied at equilibrium, for simple one-to-one binding. Regarding TGF-β1 (from UniProt P01137), the Kd is 0.5 nM.
